Test results from patent publication US20150110806A1.

Biological target: CD147 expressed on human endothelial cells (hCMEC/D3, hBMEC) and human brain sections (human) (UniProt P35613)
Assay: cell-based or functional assay

MBP-PilE (from UniProt P0AEX9 27-392)
bacterial adhesion to hCMEC/D3 cells (wild-type Nm, cells pretreated with 10 µg/ml MBP-pilin): 60 % reduction

MBP-PilV
bacterial adhesion to hCMEC/D3 cells (wild-type Nm, cells pretreated with 10 µg/ml MBP-pilin): 50 % reduction

anti-CD147 antibody MEM-M6/1
initial attachment of Nm to hBMEC cells under flow conditions (10 µg/ml antibody): 20 % reduction

anti-CD147 antibody MEM-M6/6
initial attachment of Nm to hBMEC cells under flow conditions (10 µg/ml antibody): 75 % inhibition
